# Experimental data reported in the nanobody polyreactivity screen of Harvey et al. (2022).
# Assay: yeast display, Sf9 membrane polyspecificity reagent, FACS + sequencing; frameworks hold sequencing errors
# Procedure, shortened: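 In a synthetic yeast display library (Saccharomyces cerevisiae BJ5465), nanobody expression was induced with galactose for 36–48 hours. FACS gates were set low and high (top ~1%) using anti-HA fluorescence for expression and streptavidin fluorescence for binding of the Sf9 membrane reagent. Each polyreactivity label is drawn from the gate of origin.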
row,Sequence,polyreactivity (PSR sort gate)
1,QVQLVESGGGLVQAGGSLRLSCAASGSTVFGNAMGWYRQAPGKERELVAAITSGGSTNYADSVKGRFTISRDNAKNTVYLQMNSLKPEDTAVYYCAKPSRWGWTGFYAYDYWGQGTQVTVSS,low polyreactivity
2,QVQLVESGGGLVQAGGSLRLSCAASGRIFSRNAMGWYRQAPGKEWELVARITVTVGSTYYADSVKGRFTISRDNAKNTVYLQMNSLKPEDTAVYYCAADAGYRYDCPYNYYYWGQGTQVTVSS,low polyreactivity
3,QVQHVESGGGLVQAGGSLRLSCAASGYTFIMYVMGWYRQAPGKERELVAAIDSNGTSTYADSVKGRFTISLDNAKNTVYFQMNSLKPEDTAVYYCAAGDIFRVFKEYDYWGQGTQVTVSS,low polyreactivity
4,QVQLVESGGGLVLAGGSLRLSCAASEFIFARNGMGWYIQAPGKERELVAAITKSGSTYADSVKGRFTISRDNAKNTVYLQMNSLKPEDTAVYYCNKDPGNVSSFTGGGYWGQGTQVTVSS,low polyreactivity
5,QVQLVESGGGLVQAGGSLRLSCAASGRTLGKYAMGWYRQAPGKERELVAAIRWTGGNTYYADSVKGRFTISRDNAKNTVYLQMNSLKPEDTAVYYCAAAYWNDWSQYDYWGQGTQVTVSS,high polyreactivity
6,QVQLVESGGGIVQAGGSLRLSSAASGRIFPYYAMGWYRQSPGKERELVAAINWRGTRTYADSVKWRFTISRDNAKYTVYFQMTSLNPEDTAVYYCAARTLYFSKYDYWGLGTQVTVSS,high polyreactivity
7,QVQLVESGGGLVQAGGSLRLSCAASGSIFQYYGMVWYRQAPGKERELVASISRSGGSTYYADSVKGRFTISRDNAKNTVYLQMNSLKPEDTAVYYCNAKEPIRRTHLTSTYRDGYWGQGTQVTVSS,low polyreactivity
8,QVQLVESGGGLVQAGGSLRLSCAASGRTFRYYAMGWYRQAPGKVRELVAAISWNGANTYYADSVKGRFTISRDNAKNTVYLQMNSLKPEDTAVYYCAATYYRWKGYDYWGQGTQVTVSS,high polyreactivity
9,QVQLVESGGGLVQAGGSLRLSCAASGSNFLYYAIGWYRQAPGKERELVDGIRRGGRTNYADSVKGRFTISRDNAKNTVYLQMNSLKPEDTAVYYCAKGGYWGQGTQVTVSS,high polyreactivity
10,QVQLVESGGGLVQAGGSLRLSCAASGSIFGTYAMGWYRQAPGKAREFVADISAIGTSTYYADSVKGRFTISRDNAKNTVYLQMNSLKPEDTAVYYCAAESFDTVEYDYWGQGTQVTVSS,low polyreactivity
11,QVQLVESGGGLVQAGGSLRLSCAASGSISWHYAMGWYRQAPGKERELVASISTDGGTTYYADSVKGRFTISRDNAKNTVYLQMNSLKPEDTAVYYCAAEWYWVYYVPYEYWGQGTQVTVSS,low polyreactivity
12,QVQLVDSGGGLVQAGGSLRLICAASGRIFYTNAMGWYRQAPGKERELVAAIDYSDSTTYYADSVKRRYTISRDNAKNTVYLQMNSLKPEDTAVYYCAAESYLYTVTFEYWGQGTQVTVSS,high polyreactivity
13,QVQLVESGGGLVQAGGSLRLSCAASGSTFSKYAMGWYRQAPGKERELVAGISRRVGSTYYADSVKGRFTISRDNAKNTVYFQMNSLKPEDTAVYYCNKVRGYPWQVVGYDYWGQGTQVTVSS,high polyreactivity
14,QVQLVESGGRLVQAGGSLRLSCAASGITFLKYALGWYRQAPGKERELVAAISRRGGSTYYADSVKGRFTISRDNAMNTVYLEMNSLKPSDTAVYYCAARTVRGTWSQNDYCGQGTQVTVSS,low polyreactivity
15,QVQLVESGGGLVQAGGSLRLSCAASGRIFFTNAMGWYRQAPGKERELVATISSSDGSTYYADSVTGRFTISRDNAKNTVYLQMNSLKPEDTAVYYCAARYRSTFYNTYDRVYWGQGTQVTVSS,high polyreactivity
16,QVQLVESGGGLVQAGGSLRLSCAASGSTFERYAMGWYRPAPGKERELVAAISAIGDSTYYADSVKGRFTISRDNAKNTVYLQMNSLKPEDTAVYYCAARYTRYHIGRGYYYWGQGTQVTVSS,high polyreactivity
17,QVQLVESGGGLVQAGGSLRLSCAASGNTFTWYTMGWYRQAPGKERELVAVITSDGSTYYADSVKGRFTISRDNAKNTVYLQMNSLKPEDTAVYYCNARYLRLRYPYTDEYNYWGQGTQVTVSS,low polyreactivity
18,QVQLVESGGGLVQAAGRLRLSSAASGIIFYSYAMGWYRQAPGTEREFVAAITNSDGSTYYADSVKGRFTISRDNAKNTVYLQMYSLKPEDTAVYMYYWGQGTQVTVSS,low polyreactivity
19,QVQLEESGGGLVQAGGSLRLSCAASGRTFTPNAMGSSRQAPGKERELVASIRRGTSTYYADSVKGRFTISRDNAKITVYLQMNSLKPEDTAVYYCAARPFVPRVGTYSYYWGQGTQVTVSS,high polyreactivity
20,QVQLVESGGGLVHAGGSLGLICAASGFIFYRYAMGWYRQAPGKERELVAAISWSGGTTYYADSVKGRFSISRDNAKNTVYLQMNSLKPEDTAVYYCAATRLRTEYYWGHGTQVTVSS,high polyreactivity
21,QVQLVESGGGLDQAGGSLRLSCAASGAIFPIYAMGWYRQAPGKERELVAAINRSGGSTYYADSVKGRFTISRDTAKNTVYLQMNSLKPEDSAVYYCNADYGYHNQLFWGYYGWSSDHWGQGTQVTVSS,low polyreactivity
22,QVQLVESGGGLVQAGGSLRLSCAASGRTFYIYAMGWYRQAPGKLRQLVAVIRGSGGSTYYADSVKGRFTISRDNAKYTVYLQMNSQKPEDTAVYYCAARRYQYVWSLYNYWGQGTQVTVSS,high polyreactivity

row,Sequence,polyreactivity (PSR sort gate)
1,QVQLVESVGGLVQAGASHRLSCAASGLNFFKYTMGWYIQAPGKERELVAAISRRGGSTYYADSVKGRFTISRDNAKNTVYLQMNSLKPDDTAVYYCNKRLGTGYYYGYDYWGQGTQVTGSS,high polyreactivity
2,QVQLVESGGGLVQAGGSLRLSCAASGRIFGNNAMGWYRQAPGKERELVAAISWSARSTYADSVKGRFTISRDNAKNTVYLQMNSLKPEVTAVYYCNADSAARKGWPIYGYWGQGTKVTVSS,high polyreactivity
3,QVQLVESGGGLVQAGGSLRLSCAASGSIFSLYAMGWYRQAPGKERELVAAISRGGSTNYADSVKGRFTISRDNAKNTVYLQMNSLKPEDTAVYYCNAGFGVRRKHITFYTWYDYWGQGTQVTVSS,low polyreactivity
4,QVQLVESGGGLVQAGGSLRLSCAASGRIFSVYSMGWYRQAPGKERELVAAIRSGDRTNYADSVKGRFTISRDNAKNTVYLQMISLKPEVTAVYYCAAVRYPNWYDYWGHGTQVTVSS,high polyreactivity
5,QVQLVESGGCLVQAGGSLRLSCAASGSTFVYYAMGWYRQAPGKESELVAAITSGGSTYYADSVKGRFTISRDNAKNTVYLQMNSLKPEDTAVYYCATDYTWFGYRYDYWGQGTQVTVSS,low polyreactivity
6,QVQHVESGGGLVQAGGSLRLRCAASGSTFQYNPMGWYRQAPGKERELVASITRGGNTNYADSVKGRFTISRDNAKNTVYLQMNSLKPEDTAVYYCAARSTYRVSHVDYWGQGTQVTVSS,low polyreactivity
7,QVQLVESGGGLVQAGGSLRLSCGASGFTFDVYAMGWYRQAPGKERELVARIRWSGGSTSYADSVKGRFTISRDNAKNTVYVQMNSLKPEDTAVYYCNTRRIYVNSGRGDYWGQGTKVTVSS,low polyreactivity
8,QVQLVESGGGLVQAGGRLRLSCAASGYTFEGYAMGWDRQAPGKERELVAAISRSGGRRYYADSVKGRFTISRDNAKNTVYLQMNSLKPEDTAVYYWAAGGYYQRTRGYWGQGTQVTVSS,high polyreactivity
9,QVQLVESGGGLVQAGGSLRLSCAASGITSTVYAMGWYRQAPGKERELVAGISWSTSSTYYADSVKGRFTISRDNAKNTVYVQMNSLKPEDTAVYYCAKAGAYKYGYWGQGTQVTVSS,high polyreactivity
10,QVQLVESGGGLVQAGGRLRLSCDASGRIFTYNAMGWYRQAPGKERELVGAITFSGGGTYYADSVKGRFTISRDNAKNTVYLVMTSLKPEDTAVYYCNQVSFGYSTYGYWGQGTQVTVSS,low polyreactivity
11,QVQLVESGGGLVQAGGSLRLSCAASGRIFFYNAMGWYRQAPGKERELVATINWSGGSTYYADSVKGRFTISRDYAKNTVYLQMNSLKPEDTAVYYCNALRASTTALWGGYWGQGTQVTVSS,high polyreactivity
12,QVQLVESGGGLVQAGGSLRLSCAASGSTFRYYTMGWYRQAAGQERELVAAITSGGGSTYYADSVKGRFTISRDNAKNTVYLQMNSLKPEDTAVYYCAARTRGTADNYWGQGTQGTVSS,high polyreactivity
13,QVQLVESWGGLVQAGGSLRLSCAASGITFTVYAMGWYRQPPGKERELVAAITRGTSTYADSVKGRFTISRDNAKNTVYLQMNSLKPEDTAVYYCAARSSPWYTRYRSSELFDYWGQGTQVTVSS,high polyreactivity
14,QVQLVESGGGLVQAGGSLRLSCAASGRTFRAYAMGWYRQAPGKERELVAAIRSGTSTNYADSVKGRFTISRDNAKNTVYLQMNSLKPEDTAVYYCAAEWRKTYRYFTFGYWGQGTQVTVSS,high polyreactivity
15,QVQLVDSGVGLVQAGGSLRLTCAASGITFYYYAMGWYRQAPGKERELVARISSGGSTNYSDSVNGRFTISRDNAKNTVYLQMISLKPEDTAVYYCAAVRHRAMDYWGQGTQVTVSS,low polyreactivity
16,QVQLVESGGGLVQAGGSLRLSCAASGIMFFLYAMGWYRQAPGKERELVAAISSGGSTYYAVSVKGRFTISRDNAKNTVYLQMNSLKPEDTAVYYCNARYWPFRYYYWGQGTQVTVSS,high polyreactivity
17,QVQLVESGGGLVQAGGSLRVSCAASGSIFGTYAMGWYRPAPGKERELVAAITSDGVDTYYADSVKGRFTISRDNAKNTVYLQMNSLKPEDTEVYYCAAEYEGLYGYGYWGQGTQVTVSS,high polyreactivity
18,QVQLVESGGGLVQAGGSLRLSCAASGFIFQPYAMGWYRQAPGKERELVAAINFSGGSTYYADSVKGRFTISRDNAKNTVYLQMNSLKPEDTAVYYCARAGRYAAYSPFYYWGQGTQVTVSS,high polyreactivity
19,QVQHVESGGGLVQAGGSLRLSCAASGITFWSNAKGWYRQAPGKEREMVAAITSSGGSTYYADSVKGRFTISRDNAKNTVYLHMNSLKPEDTAVYYCAAPISSSAGWDSYDYWGQGTQVTVSS,low polyreactivity
20,QVQLVEKGGCLVQAGGSLSLSCAAYGRTFILNSMGCYRQAPWKEMELVAAISWSGGSTYYADSVKGRFTISRDNAKNTVYLQMNSLKPEDTAVYYCAAETYAYLFHTYDYWGQGTQVTVSS,low polyreactivity
21,QVQLVESGGGLVQAGGSLRLSCAASGFTFVKNAMGWYRQAPGKERELVAAITGSAGRTYYADSVKGRFTISRDNAKNTVYLQMNSLKPEDTAVYYCAAPRFAAPRRIGYDWGQGTQVTVSS,high polyreactivity
